Molecular target: the molecule itself
Assay: single-molecule photobleaching steps and spot intensity distribution (TIRF microscopy, HILO illumination); Halo-HM19 constructs expressed in living HeLa cells, stained with R110 Direct HaloTag ligand, spots in filopodia, 37 °C

B1: Halo-HM19^IQ3LZ (tail-truncated human myosin 19, residues 1-834, forced dimer with GCN4 leucine zipper, N-terminal HaloTag) (other)
chain: MLQQVNGHNPGSDGQAREYLREDLQEFLGGEVLLYKLDDLTRVNPVTLETVLRCLQARYMADTFYTNAGCTLVALNPFKPVPQLYSPELMREYHAAPQPQKLKPHVFTVGEQTYRNVKSLIEPVNQSIVVSGESGAGKTWTSRCLMKFYAVVATSPASWESHKIAERIEQRILNSNPVMEAFGNACTLRNNNSSRFGKFIQLQLNRAQQMTGAAVQTYLLEKTRVACQASSERNFHIFYQICKGASEDERLQWHLPEGAAFSWLPNPERSLEEDCFEVTREAMLHLGIDTPTQNNIFKVLAGLLHLGNIQFAASEDEAQPCQPMDDAKYSVRTAASLLGLPEDVLLEMVQIRTIRAGRQQQVFRKPCARAECDTRRDCLAKLIYARLFDWLVSVINSSICADTDSWTTFIGLLDVYGFESFPDNSLEQLCINYANEKLQQHFVAHYLRAQQEEYAVEGLEWSFINYQDNQPCLDLIEGSPISICSLINEECRLNRPSSAAQLQTRIETALAGSPCLGHNKLSREPSFIVVHYAGPVRYHTAGLVEKNKDPIPPELTRLLQQSQDPLLMGLFPTNPKEKTQEEPPGQSRAPVLTVVSKFKASLEQLLQVLHSTTPHYIRCIKPNSQGQAQTFLQEEVLSQLEACGLVETIHISAAGFPIRVSHRNFVERYKLLRRLHPCTSSGPDSPYPAKGLPEWCPHSEEATLEPLIQDILHTLPVLTQAAAITGDSAEAMPAPMHCGRTKVFMTDSMLELLECGRARVLEQCARCIQGGWRRHRHREQERQWRAVMLIQAAIRSWLTRKHIQRLHAAATVIKRAWQKWRIRMACLAAKELDGGTTHSYTSMKQLEDKVEELLSKNYHLENEVARLKKLVGERTSMKQLEDKVEELLSKNYHLENEVARLKKLVGERTSGSEL
modifications: rhodamine 110 (R110 Direct HaloTag ligand) on the HaloTag
notes: myosin 19 (Myo19, HM19), human, residues 1-834 (motor domain and three IQ motifs; 835 to 970 removed), cDNA from GeneCopoeia NM_001163735.1; also called R110-Halo-HM19^IQ3LZ; R110-Halo-HM19^IQ3-LZ; source: HeLa cells, transfected, in living cells; not shown: HaloTag, N-terminal, kept
For B1, the “stoichiometry N” value was 2.
